Data published in patent US20250333503A1 (COMPUGEN, published 2025).

T1: human PVRIG (Poliovirus Receptor Related Immunoglobulin Domain Containing Protein) (human, UniProt Q6DKI7 41-326)
T1 construct: whole, on cells; on HEK293 over-expressing cells (some pools flag-tagged), Jurkat, CA46 or primary T cells; also called hPVRIG; C7orf15
T1 sequence (looked up): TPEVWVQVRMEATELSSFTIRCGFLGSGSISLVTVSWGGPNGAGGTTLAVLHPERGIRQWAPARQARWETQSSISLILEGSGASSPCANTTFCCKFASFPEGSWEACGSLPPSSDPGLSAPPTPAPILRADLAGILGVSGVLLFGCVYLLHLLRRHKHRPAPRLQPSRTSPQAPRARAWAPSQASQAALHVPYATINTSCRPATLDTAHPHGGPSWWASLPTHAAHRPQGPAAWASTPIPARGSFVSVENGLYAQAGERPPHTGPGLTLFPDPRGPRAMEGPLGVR

B1: CPA.7.021 IgG conjugated with Alexa 647 (antibody, V domains shown)
VH: EVQLVESGGGVVKPGGSLRLSCAASGFTFGTSSMNWVRQAPGKGLEWVAVISFDGTEIHYADSVKGRFTISRDNSKSTVFLQMNSLRPDDTALYYCAKGSGNIYFYSGMDVWGQGTTVTVSS
VL: DIQMTQSPSTLSASVGDRVTITCRAGQSISGWLAWFQQKPGKAPNLLIYETSTLESGVPSRFSGSGSGTEYTLTISSLQPDDFATYYCQQYYSYPLTFGQGTKVEIK
B2: mouse PVRL2-his (ligand, UniProt P32507 32-351, looked up)
chain: QDVRVRVLPEVRGRLGGTVELPCHLLPPTTERVSQVTWQRLDGTVVAAFHPSFGVDFPNSQFSKDRLSFVRARPETNADLRDATLAFRGLRVEDEGNYTCEFATFPNGTRRGVTWLRVIAQPENHAEAQEVTIGPQSVAVARCVSTGGRPPARITWISSLGGEAKDTQEPGIQAGTVTIISRYSLVPVGRADGVKVTCRVEHESFEEPILLPVTLSVRYPPEVSISGYDDNWYLGRSEAILTCDVRSNPEPTDYDWSTTSGVFPASAVAQGSQLLVHSVDRMVNTTFICTATNAVGTGRAEQVILVRESPSTAGAGATGG
notes: also called His-tagged PVRL2; his-tagged mouse PVLR2

Key:
[1] = target: T1, human PVRIG (Poliovirus Receptor …); assay: FACS on Jurkat cells after PVRIG siRNA knock down
[2] = target: T1, human PVRIG (Poliovirus Receptor …); assay: FACS on Jurkat cells transfected with scrambled siRNA
[3] = target: T1, human PVRIG (Poliovirus Receptor …); assay: flow cytometry equilibrium titration on HEK 293 cells expressing human PVRIG, 1:1 fit
[4] = target: T2, mouse PVRIG on HEK293 over-expressing cells (mouse); assay: FACS, 60 µg/ml on HEK293 OX mouse PVRIG; one of two sources
T2 construct: whole, on cells; also called HEK293 OX mouse PVRIG; mouse PVRIG-FLAG

Row | Binder | fold change (anti PVRIG vs isotype control) [1] [fold] | fold change (anti PVRIG vs isotype control) [2] [fold] | Kd [3] [nM] | fold binding vs empty vector cells [4] [fold]
1 | B1 | 2.8 | 15.3 | 2.5 | –
2 | B2 | – | – | – | 2
